Results taken from the supplement of paper PMC6379048.

Key:
Assay in all cases: Kd (EC50 corrected by depletion factor)
MRPL14 = MRPL14 (UniProt Q6P1L8)
How it was run: (§1)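 HEK293-FT lysate (2.5 mg protein/well) was pre-incubated 1 h at 4°C with free RNA oligos (0 nM to 30 μM), then 30 min at 4°C with the same 5′-amino-C6 oligos coupled to NHS-Sepharose beads. Bound proteins were quantified by label-free LC-MS/MS in three biological replicates and two independent experiments, and normalised to the water control. EC50 came from a four-parameter log-logistic fit; Kd is EC50 times a protein-dependent depletion factor.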

GNB2L1 = GNB2L1 (UniProt P63244)
How it was run: as §1

TUBB2A = TUBB2A (UniProt Q13885)
How it was run: as §1

MRPS27 = MRPS27 (UniProt Q92552)
How it was run: as §1

PRPF3 = target: T1, PRPF3 (UniProt O43395)
T1 sequence: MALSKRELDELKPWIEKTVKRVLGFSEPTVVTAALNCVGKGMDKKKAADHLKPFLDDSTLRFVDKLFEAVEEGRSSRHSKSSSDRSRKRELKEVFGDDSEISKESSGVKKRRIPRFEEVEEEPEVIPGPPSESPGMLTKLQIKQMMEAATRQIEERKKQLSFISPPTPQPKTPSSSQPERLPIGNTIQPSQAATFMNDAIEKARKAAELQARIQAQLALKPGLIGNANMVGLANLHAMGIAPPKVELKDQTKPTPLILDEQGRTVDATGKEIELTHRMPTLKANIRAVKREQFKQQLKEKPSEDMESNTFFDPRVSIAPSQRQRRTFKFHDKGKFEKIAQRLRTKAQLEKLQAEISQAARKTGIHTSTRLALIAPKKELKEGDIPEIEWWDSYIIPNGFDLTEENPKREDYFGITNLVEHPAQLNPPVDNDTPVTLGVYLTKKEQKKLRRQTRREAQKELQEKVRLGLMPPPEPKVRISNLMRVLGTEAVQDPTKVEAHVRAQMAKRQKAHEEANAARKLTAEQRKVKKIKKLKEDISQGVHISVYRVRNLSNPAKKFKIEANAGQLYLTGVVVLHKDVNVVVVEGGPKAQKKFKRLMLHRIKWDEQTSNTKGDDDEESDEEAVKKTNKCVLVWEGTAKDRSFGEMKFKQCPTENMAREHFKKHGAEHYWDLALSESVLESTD
How it was run: as §1

ERAL1 = target: T2, ERAL1 (UniProt O75616)
T2 sequence: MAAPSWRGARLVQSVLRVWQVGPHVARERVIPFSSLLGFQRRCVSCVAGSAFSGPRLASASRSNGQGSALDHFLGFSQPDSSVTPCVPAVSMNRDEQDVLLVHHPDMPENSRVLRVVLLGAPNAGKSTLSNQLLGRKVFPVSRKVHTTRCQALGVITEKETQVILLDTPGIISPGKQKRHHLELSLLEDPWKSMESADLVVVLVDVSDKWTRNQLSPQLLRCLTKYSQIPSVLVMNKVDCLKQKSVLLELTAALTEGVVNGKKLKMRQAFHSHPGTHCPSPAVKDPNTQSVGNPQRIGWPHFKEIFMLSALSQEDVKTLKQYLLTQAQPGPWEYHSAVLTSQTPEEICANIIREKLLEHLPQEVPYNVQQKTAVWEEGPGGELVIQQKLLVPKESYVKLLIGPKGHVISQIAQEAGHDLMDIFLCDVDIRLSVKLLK
How it was run: as §1

MYEF2 = target: T3, MYEF2 (UniProt Q9P2K5)
T3 sequence: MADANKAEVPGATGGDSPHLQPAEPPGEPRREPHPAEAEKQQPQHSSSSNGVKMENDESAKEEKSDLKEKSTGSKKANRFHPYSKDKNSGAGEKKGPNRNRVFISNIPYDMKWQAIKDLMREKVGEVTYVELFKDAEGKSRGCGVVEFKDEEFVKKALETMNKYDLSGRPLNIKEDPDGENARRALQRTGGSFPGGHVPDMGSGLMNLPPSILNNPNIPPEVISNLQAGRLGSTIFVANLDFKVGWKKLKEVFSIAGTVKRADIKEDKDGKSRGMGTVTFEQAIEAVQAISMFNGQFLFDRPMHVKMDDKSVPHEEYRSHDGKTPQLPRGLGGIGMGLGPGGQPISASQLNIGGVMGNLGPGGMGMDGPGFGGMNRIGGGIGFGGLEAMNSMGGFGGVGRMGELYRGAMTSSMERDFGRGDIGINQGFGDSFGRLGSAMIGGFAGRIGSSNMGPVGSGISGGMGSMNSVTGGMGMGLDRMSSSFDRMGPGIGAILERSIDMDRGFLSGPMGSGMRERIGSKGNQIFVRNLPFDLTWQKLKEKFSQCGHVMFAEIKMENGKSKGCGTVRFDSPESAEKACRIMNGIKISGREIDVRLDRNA
How it was run: as §1

MEX3C = target: T4, MEX3C (UniProt Q5U5Q3)
T4 sequence: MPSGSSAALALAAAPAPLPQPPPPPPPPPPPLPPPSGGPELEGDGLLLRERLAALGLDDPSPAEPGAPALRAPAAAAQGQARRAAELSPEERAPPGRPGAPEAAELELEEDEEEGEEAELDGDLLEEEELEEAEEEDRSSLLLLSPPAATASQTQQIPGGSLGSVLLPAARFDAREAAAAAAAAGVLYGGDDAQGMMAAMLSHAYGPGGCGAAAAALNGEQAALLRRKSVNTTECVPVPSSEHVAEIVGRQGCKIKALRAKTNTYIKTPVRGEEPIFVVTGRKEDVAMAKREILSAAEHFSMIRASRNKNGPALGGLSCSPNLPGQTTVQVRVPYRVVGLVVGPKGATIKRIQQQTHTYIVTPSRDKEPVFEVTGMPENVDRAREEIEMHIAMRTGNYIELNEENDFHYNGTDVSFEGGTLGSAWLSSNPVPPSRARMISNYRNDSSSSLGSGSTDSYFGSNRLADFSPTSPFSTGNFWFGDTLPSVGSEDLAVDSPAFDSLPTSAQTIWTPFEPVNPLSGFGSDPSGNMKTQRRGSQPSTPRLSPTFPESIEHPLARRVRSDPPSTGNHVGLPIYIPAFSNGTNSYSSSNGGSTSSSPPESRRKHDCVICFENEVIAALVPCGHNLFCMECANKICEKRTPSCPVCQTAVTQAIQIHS
How it was run: as §1

TUBB2A, sequence (Q13885 whole entry): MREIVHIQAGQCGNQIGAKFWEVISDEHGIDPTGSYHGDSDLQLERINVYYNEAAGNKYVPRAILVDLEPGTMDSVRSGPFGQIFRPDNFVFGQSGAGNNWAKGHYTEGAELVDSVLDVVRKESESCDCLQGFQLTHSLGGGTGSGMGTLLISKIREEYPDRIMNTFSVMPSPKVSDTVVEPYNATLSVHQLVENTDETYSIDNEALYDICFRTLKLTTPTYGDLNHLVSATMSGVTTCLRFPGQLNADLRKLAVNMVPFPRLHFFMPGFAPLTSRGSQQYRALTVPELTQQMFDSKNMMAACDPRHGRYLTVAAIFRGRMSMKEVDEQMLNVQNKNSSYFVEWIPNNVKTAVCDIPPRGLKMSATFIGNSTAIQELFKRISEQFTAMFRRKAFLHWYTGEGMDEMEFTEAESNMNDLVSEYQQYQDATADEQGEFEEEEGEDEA

CUGUCCU
Kd (MRPL14): 53.5 nM | Kd (GNB2L1): 808 nM

AAUAAA
Kd (TUBB2A): 1030 nM

UAUUUAU
Kd (MRPS27): 49.8 nM | Kd (PRPF3): 2670 nM | Kd (ERAL1): 25.5 nM | Kd (MYEF2): 2700 nM | Kd (MEX3C): 339 nM
